Measurements: publication PMC4377584, “Sestrin2 inhibits mTORC1 through modulation of GATOR complexes” (Scientific Reports, 2015)

Target: T1, HA-GATOR2 (UniProt Q9NXC5 1-875; Q96S15 1-790; Q6PJI9 1-974; Q96EE3 1-360; P55735 1-322)
T1 construct: MIOS; WDR24; WDR59; SEH1L; SEC13; that every subunit carried the HA tag is read from the name HA-GATOR2; also called immunopurified GATOR2 protein components; purified GATOR2; source: HEK293, transfected, immunopurified (anti-HA agarose beads, HA peptide); copies: + + + +
Assay: pull-down; in vitro: purified proteins mixed in 20 ul buffer A (30 mM Tris-HCl pH8.0, 100 mM NaCl, 1 mM TCEP), incubated overnight with antibodies against the target protein, protein G/A bead, immunoblot; 1 ug Sestrin2; in Fig. 2D GATOR1 pulled down with NPRL2 antibody and detection with HA antibody
Details: both partners purified

binding result: binds
B1: Recombinant Sestrin2 (natural protein, UniProt P58004 1-480, looked up)
chain: MIVADSECRAELKDYLRFAPGGVGDSGPGEEQRESRARRGPRGPSAFIPVEEVLREGAESLEQHLGLEALMSSGRVDNLAVVMGLHPDYFTSFWRLHYLLLHTDGPLASSWRHYIAIMAAARHQCSYLVGSHMAEFLQTGGDPEWLLGLHRAPEKLRKLSEINKLLAHRPWLITKEHIQALLKTGEHTWSLAELIQALVLLTHCHSLSSFVFGCGILPEGDADGSPAPQAPTPPSEQSSPPSRDPLNNSGGFESARDVEALMERMQQLQESLLRDEGTSQEEMESRFELEKSESLLVTPSADILEPSPHPDMLCFVEDPTFGYEDFTRRGAQAPPTFRAQDYTWEDHGYSLIQRLYPEGGQLLDEKFQAAYSLTYNTIAMHSGVDTSVLRRAIWNYIHCVFGIRYDDYDYGEVNQLLERNLKVYIKTVACYPEKTTRRMYNLFWRHFRHSEKVHVNLLLLEARMQAALLYALRAITRYMT
notes: Full-length Sestrin2 cDNA; also called Sestrin2 protein; purified Sestrin2; source: Rosetta (DE3) pLysS E. coli, purified (Ni-NTA, amylase resin, TEV, HiTrap Q, Superdex 200); not shown: His6, N-terminal, cleaved; MBP, N-terminal, cleaved
